For one data set, the system named is O=C(O)/C=C/c1c[nH]cn1. Kind of data set: purified protein. As to conditions: pH 8.0; 25.0 °C.
The subject of data set [1] is C[N+](C)(C)[C@@H](Cc1cnc[nH]1)C(=O)[O-]. Kind of data set: purified protein. Type of data set: biochemical, Shewanella woodyi. The note with it: pH 8.5.

Turning to “Swoo_3912 (Shewanella woodyi ATCC 51908)”, the Km in the data set with O=C(O)/C=C/c1c[nH]cn1 came out at 0.7 ± 0.1 µM.
In the case of “Swoo_3913 (Shewanella woodyi ATCC 51908)”, in data set [1], the Michaelis-Menten constant (Km) is 103 ± 8 µM.
